Measured values published in article PMC12463286.
Changes are numbered by the printed parent chain.

Experiments:
Assay in all cases: EMSA
Settings in all cases: pH 7.5, 30 min at 37 C
[1] = target: T1, FadR-T230E T230E (Streptococcus suis serotype 2 strain ZY05719) (UniProt A0A0H3MZ02)
T1 sequence: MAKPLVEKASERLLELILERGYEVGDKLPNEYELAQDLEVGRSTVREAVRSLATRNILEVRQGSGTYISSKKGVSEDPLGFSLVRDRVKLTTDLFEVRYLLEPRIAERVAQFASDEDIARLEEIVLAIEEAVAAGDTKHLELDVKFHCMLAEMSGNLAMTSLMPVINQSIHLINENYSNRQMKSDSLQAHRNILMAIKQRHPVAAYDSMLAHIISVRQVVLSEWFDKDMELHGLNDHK

[2] = target: T2, FadR (Streptococcus suis serotype 2 strain ZY05719) (UniProt A0A0H3MZ02)
T2 sequence: T1 sequence with E230T

[3] = target: T3, FadR-T230A T230A (Streptococcus suis serotype 2 strain ZY05719) (UniProt A0A0H3MZ02)
T3 sequence: T1 sequence with E230A

Measured: binding

CTGTCCTCCTTGTAGATTTATACATGATGGGAAACGAGGAGGACCGTACGCTTTCCTGCCTCTCATTTCCTCTTTACATCCATAGTTTAACAGAGCAAAAAAACAAAAACTTGAAAACGCTCACATTTATTTTGAGAAATTCTTCACATTTTTAACCTTATTTATAAATAATTATCGATTATATCATCTAAATTCTGCATAATTCTTTCCGTTATATCATTATATGAATTTTTATTTTTTTATAAAAAACAGAAACTTCAATGAGTTTCTGTCAAATTTTCTAAGAAATAATCAATATCT (double strand) [adi promoter]
binds: all assays above
